Results reported in the DeepSol protein solubility set.

Test: soluble on expression in E. coli; label from the status in PepcDB or PDB records

| Sequence | soluble on expression in E. coli |
| --- | --- |
| MSGRLTGKVALVSGGARGMGASHVRAMVAEGAKVVFGDILDEEGKAMAAELADAARYVHLDVTQPAQWKAAVDTAVTAFGGLHVLVNNAGILNIGTIEDYALTEWQRILDVNLTGVFLGIRAVVKPMKEAGRGSIINISSIEGLAGTVACHGYTATKFAVRGLTKSTALELGPSGIRVNSIHPGLVKTPMTDWVPEDIFQTALGRAAEPVEVSNLVVYLASDESSYSTGAEFVVDGGTVAGLAHNDFGAVEVSSQPEWVT | soluble |
| MRVIVFFDLPVITPENRHNYSVFRKYLIKSGFIMQQKSVYSKLVLNLTNRDSIVKSIEKNKPPEGLVEVLTVTEKQYAKMEIIIGESKTEYLNTDERLVVLLEHHHHHH | soluble |
| TVGCVAVDSHGNLASATSTGGLVNKMVGRIGDTPLIGAGTYANELCAVSATGKGEEIIRATVARDVAALMEFKGLSLKEAADFVIHERTPKGTVGLIAVSAAGEIAMPFNTTGMFRACATEDGYSEIAIWPTT | soluble |
| GPGSMKLRCFLLRYYPPGITLEYETSAGQVGQKTIGLLSLTPTTPLEPLVDKIIAEEPLLNGKYHDQIVTYLQRLVEKLIAGNNPNQTFTLFKSLRAHMLPLTNCAFNKNGTKFVTGSYDRTCKVWETATGNELVSLEGHRNVVYCVGFNNPYGNRVATGSFDKTCKIWDGESGQCLHTLTGHVTEIVCMSFNPQSTLIGTGSMDNTAKVWDVETGQELHTLMDHTAEIVALNFNTYGDLIVTGSFDHTAKLWDVRTGTVVHTLREHRGEISSVQFNYASNLVVTGSIDRTCKLWDVASGRCVSTLRGHTDEVLDVAFSVSGNMVASASADTTARVYNTATCHCIASLNDHEGEISKLEFNPQGTKIITASGDKRCNLWSVETGQVLQSLVGHTDEIFSCSFNYEGDTILTGSKDNTCRIWKS | not soluble |
| MPDHGPAFTVKIAETEAELHAAQRLRYDVFVRELGGSGALVDHQAGLERDRFDPFFDHMLCINNRSGQVVGVYRLLRDEQAQSAGQFYSEDEYDLGVLKRSGRRLLELGRSCVHPDYRGGMAMYHLWNGLADYVEQHGIEVLFGVASFHGTDVEALAQPLSMLYHNHLAPEDLRVRTQPAHYVDMNRITPEALDRRRAMLEVPSLIKAYLRLGGFVGDGAYIDHAFNTTDVCLILDTARMNERQRRIYGGG | not soluble |
| MEITDVRIRKIDSEGKMKAVVSVTFDNEFVVHDIKVIESQNGLFIAMPSRKAPDGEFRDIAHPINAETRSKIQTAILDKYESICAGSTETEGNN | soluble |
| MSPNCETPTSSLSTSLRFVPSLACIAEEEPKVIGIRKITVPGSSKPFQVQIPLYDLNIYAPEPPKQPLPDSYQRLLAEMDQYIGGHQNSEMYKEMAKNLRHKVAVEQAENNRLSKSNFTNRDWYWYAEQTRAFVDEPVINSTSKTQESNISECLEETSSSAKSTVMKDEDLFDLSADF | not soluble |
| MAGQTLKGPWNNLERLAENTGEFQEVVRAFYDTLDAARSSIRVVRVERVSHPLLQQQYELYRERLLQRCERRPVEQVLYHGTTAPAVPDICAHGFNRSFCGRNATVYGKGVYFAKRASLSVQDRYSPPNADGHKAVFVARVLTGDYGQGRRGLRAPPLRGPGHVLLRYDSAMDCICQPSIFVIFHDTQALPTHLITCEHVPRASPDDPSGAHHHHHH | soluble |
| MGSDKIHHHHHHMDAANVDLKAFTEDFYHRLCGAHLESVKETLVYLKHETDVWVEVTTLLIPGENDSPEEIDAQTKWMMAALGPDVPLHFSAFHPDWKMKDKTNTPPETLTRARDIAIRNGLRYVYTGNVHDPAGGGTYCSGCGALLIGRDWYELSTWALTPEGHCRECGTPLPGRFEAAPGTWGRKRQPVRFQR | not soluble |
| MIPLVAPRSVIERVEAICREAGGILRVAPYRRLQVGLITTGSEVYKGRIKDAFGPVVRAKIASYGSEVALEKVVPDDAAAIHDAIEEMLAAGMQMVVLTGGMSVDPDDVTPDGIRRSGAEVVTYGAPVLPGAMFMLAYRGDVPIMGLPGCVMYYRATVFDLVLPRILVGERLEHHHHHH | not soluble |
| MEKRIVCLAGDGVGPEVMESAKEVLHMVERLYGHHFHLQDEHFGGVAIDLTGQPLPQRTLAACLASDAVLLGAVGGPRWDGAKERPEKGLLALRKGLGVFANVRPVTVESATAHLSPLKKADEIDFVVVRELTGGIYFSYPKERTDEVATDTLTYHRHEIERIVSCAFQLASKRKKKVTSIDKANVLESSKLWRIVTEEVALRYPDVELEHILVDAAAMELIRNPGRFDVIVTENLFGDILSDEASVLAGSLGMLPSASHAEKGPSLYEPIHGSAPDIAGKNKANPIAMMRSVAMMLGQSFGLTREGCAIEEAISAVLKSGKCTADIGGTETTTSFTKAVMQEMEEQALVGRGR | not soluble |
| MAQQQNPYYGTGFYQPSGTYVQPQQMTQQQQQAMQQQTAQAAQAQYAISQGMLPLEQSYIENILRLNKGKQATVVMTYERGSSLGTQSYTGIIEAAGRDHIVISEPQSGKRYLLLMIYLDYVEFPEEITYLPSQQATYTPRP | soluble |
| SVELSAGQSIIADAAGALGPVNRDDAPAATWREGRVSFSGTPLMQALAEFERYGDTGLVIRDPAVAALKVNGSFDLRQIGAFARALPRVLPVQLSTRDGQTEII | not soluble |
| GAMGNKEKADQQKAITDIVALENALDMYKLDNSVYPTTDQGLEALVTKPSSPEPRNYRNGGYIKRLPKDPWGNEYQYMSPGDKGTIDIFTLGADGQEGGEGAAADIGNWNMQDFQ | soluble |
| MDSPRVERFRAQVTDTFVPNLTWAMAPVTATINLFQDFQSYQRLAQQNRELRSELRRMQAWKEAALQLEQENARLLDLNNVRLDPRLTYITGVVLADSGSPFRQSVLINVGSRDGLVDGWATMDGIGLVGRISGVADKTARVILLTDASSRIPAIIQPSGQRVIVSGDNSAAPFIDFLEDSDLVKPGHRVISSGDGGVFPAGLLIGQVAADPTGKLRVIMAADYQRLEFLRVLRHHGTTTVSDSAQIIGPQLPVAEATQLEHHHHHH | not soluble |
| GMPDSPTLLDLFAEDIGHANQLLQLVDEEFQALERRELPVLQQLLGAKQPLMQQLERNGRARAEILREAGVSLDREGLARYARERADGAELLARGDELGELLERCQQANLRNGRIIRANQASTGSLLNILRGQDAPSLYDSRGGTASSSRQRPLSQA | soluble |
| MGSDKIHHHHHHMSLLDKLRELGISENLIKEIEKFRSQYPVDKEYESRIPVPTQFYYGSDVWEQAITAVLCGENLLLVGEKATGKNLFAENLAGVFNRPRWDVSFHVNMDAASLIGTDTFSAGEVTFRPGPVYTAAKTGGFAVLDEINMAKSEAMAVLHATLDFRRTIDVPGYDRLSLHPATRFIATMNYGYAGTKELNEALVSRFAVIRMPMISKESLVKLIKEHYPTIREAGANELAEVFLELHTKCKNGEISSKALDLRGLIGSIGMMEKGLNIYAALDMGITNKSFDEYEQTLIRDTIRARISRKMSREQLFC | not soluble |
| GSHMVTIVRIYLDGVYGIGKSTTGRVMASAASGGSPTLYFPEPMAYWRTLFETDVISGIYDTQNRKQQGNLAVDDAALITAHYQSRFTTPYLILHDHTCTLFGGNSLQRGTQPDLTLVFDRHPVASTVCFPAARYLLGDMSMCALMAMVATLPREPQGGNIVVTTLNVEEHIRRLRTRARIGEQIDITLIATLRNVYFMLVNTCHFLRSGRVWRDGWGELPTSCGAYKHRATQMDAFQERVSPELGDTLFALFKTQELLDDRGVILEVHAWALDALMLKLRNLNVFSADLSGTPRQCAAVVESLLPLMSSTLSDFDSASALERAARTFNAEMGV | soluble |
| MGSDKIHHHHHHMKERILQEIKTRVNRKSWELWFSSFDVKSIEGNKVVFSVGNLFIKEWLEKKYYSVLSKAVKVVLGNDATFEITYEAFEPHSSYSEPLVKKRAVLLTPLNPDYTFENFVVGPGNSFAYHAALEVAKHPGRYNPLFIYGGVGLGKTHLLQSIGNYVVQNEPDLRVMYITSEKFLNDLVDSMKEGKLNEFREKYRKKVDILLIDDVQFLIGKTGVQTELFHTFNELHDSGKQIVICSDREPQKLSEFQDRLVSRFQMGLVAKLEPPDEETRKSIARKMLEIEHGELPEEVLNFVAENVDDNLRRLRGAIIKLLVYKETTGKEVDLKEAILLLKDFIKPNRVKAMDPIDELIEIVAKVTGVPREEILSNSRNVKALTARRIGMYVAKNYLKSSLRTIAEKFNRSHPVVVDSVKKVKDSLLKGNKQLKALIDEVIGEISRRALSG | not soluble |
| KTYGPLKNLPHLEKEQLSQSLWRIADELGPIFRFDFPGVSSVFVSGHNLVAEVCDEKRFDKNLGKGLQKVREFGGDGLFTSWTHEPNWQKAHRILLPSFSQKAMKGYHSMMLDIATQLIQKWSRLNPNEEIDVADDMTRLTLDTIGLCGFNYRFNSFYRDSQHPFITSMLRALKEAMNQSKRLGLQDKMMVKTKLQFQKDIEVMNSLVDRMIAERKANPDENIKDLLSLMLYAKDPVTGETLDDENIRYQIITFLIAGHETTSGLLSFAIYCLLTHPEKLKKAQEEADRVLTDDTPEYKQIQQLKYIRMVLNETLRLYPTAPAFSLYAKEDTVLGGEYPISKGQPVTVLIPKLHRDQNAWGPDAEDFRPERFEDPSSIPHHAYKPFGNGQRACIGMQFALQEATMVLGLVLKHFELINHTGYELKIKEALTIKPDDFKITVKPRKTAAINVQRKEQADIKAETKPKETKPKHGTPLLVLFGSNLGTAEGIAGELAAQGRQMGFTAETAPLDDYIGKLPEEGAVVIVTASYNGAPPDNAAGFVEWLKELEEGQLKGVSYAVFGCGNRSWASTYQRIPRLIDDMMKAKGASRLTAIGEGDAADDFESHRESWENRFWKETMDAFDINEIAQKEDRPSLSITFLSEATETPVAKAYGAFEGIVLENRELQTAASTRSTRHIELEIPAGKTYKEGDHIGILPKNSRELVQRVLSRFGLQSNHVIKVSGSAHMAHLPMDRPIKVVDLLSSYVELQEPASRLQLRELASYTVCPPHQKELEQLVSDDGIYKEQVLAKRLTMLDFLEDYPACEMPFERFLALLPSLKPRYYSISSSPKVHANIVSMTVGVVKASAWSGRGEYRGVASNYLAELNTGDAAACFIRTPQSGFQMPNDPETPMIMVGPGTGIAPFRGFIQARSVLKKEGSTLGEALLYFGCRRPDHDDLYREELDQAEQDGLVTIRRCYSRVENEPKGYVQHLLKQDTQKLMTLIEKGAHIYVCGDGSQMAPDVERTLRLAYEAEKAASQEESAVWLQKLQDQRRYVKDVW | not soluble |
| LSPLPRAYQWADGSAYLNHVELVRKARGAEVPASFYTDPLMYQGGSDAFLAPTADIPLRDEAWGLDFEGEVAVVTGDVPLGAPADAKYIRLLMLVNDVTLRGLIPPELAKGFGFFQSKPATAFSPVAVTPDELGDAWDGGKVHLPLLVDYNGAFYGKPDCGVEMQFSFPQLVAHVSKTRELVAGSIVGSGTISNKDRSVGSCCLAEQRMIETIEQGAPKTPFMKVGDTVRIEMRNAAGDSIFGAIEQTVVKHD | not soluble |
| GPGSMHVSSPQRAKSEASQPPNGSPPLSSSEPAAVHLYDLDTVFLSKTVISLTDVFTNSTDGPFDLSPLCAPQQQGVEEQQRLQQAAATTASSPSTGDAHCSPSSGATHAHMCSTSLPFSGGSTLRPKAVARGADGQWRTVSTDRGAPASSAFTTACNKPPSQEAHARMLLVPLDSYHFLLTYHDVDVAGQLRGRCDKQTAMATMERLSAASPGCRPPRSGICVVRRLEGEQRGATKASSAATAVLAGAASATRPTLSRIAHGLPLDAFDGWVRDYTVYGLSCNEAVLRAAWEDKARERAEGTLAMPAGAVVEVGESAAPGHESAGGGGSGEERRVTGGGNSRGDNVGGVHISVPPASGSSAEATVEGAAALAPQLSDAPSVLVPTDGAAVGEGKDAATFASPDAARAAMLSPSLDRLHCSSTTSSSSTATPTPSPPTERSEEGGKVGGTVSTTMSASPASTAAQQQQQQNDVLWEEERQRTQRAAAQLRHRFLVSDSAQHALWALEVHLPAMKVRAVSPAEFYALEVEESDEERCQQLPGTARMMATMVTMKHRRHAALQKHERILLMHLHRDWRFLAGRQRLQSRAAARPSQVTATLSRARPAPTHRGRARHRRQIR | soluble |
